Laboratory results reported in the DeepSol protein solubility set.

Assay: soluble on expression in E. coli; label from the status in PepcDB or PDB records

Row | Sequence | soluble on expression in E. coli
1 | MGSDKIHHHHHHMPKILKFNEEARRALERGVDKVANAVKVTLGPKGRNVVIEKSWGSPTITNDGVSIAKEIELEDKFENLGAQLVKEVASKTNDVAGDGTTTATVLAQAMIKEGLKNVAAGANPILLKRGIDKAVEKAVEEIKKVSKKLSGREDIAHVAAISANSAEIGELIAEAMDKVGEDGVITVEDSKTLETYVEFTEGMQFDRGYISPYFVTDAEKMEVVLKEPFILITDRKLSAVKPLIPILEKVAQTGKPLLVIAEDVEGEVLTTLVLNKLKGTLQSCAVKAPGFGERRKAMLQDIAILTGGQVASEELGINLEDLTLEDLGRADLVRVKKDETIIIGGKGDPEAIKKRIAQIKAQIEETTSEYEKETLQERMAKLAGGVAVIKVGAATETELKEKKHRIEDALSATRAAVEEGIVPGGGVTLLRARKAVEKVIEELEGDEKIGAQIVYKALSAPIKQIAENAGYDGAVIIEKILSNDDPAYGFDALRGEYCNMFERGIIDPAKVTRSALQNAASIAGMLLTTEVLIVEKPEEKKETPSMPEEF | not soluble
2 | MSLSNAVAQDLMTIADIVEATTTAPIPFHITAFDGSFTGPEDAPYQLFVANTDAVSYIATAPGDLGLARAYLMGDLIVEGEHPGHPYGIFDALKEFYRCFKRPDASTTLQIMWTLRKMNALKFQEIPPMEQAPAWRKALINGLASRHSKSRDKKAISYHYDVGNEFYSLFLDDSMTYTCAYYPTPESSLEEAQENKYRLIFEKLRLKEGDRLLDVGCGWGGMVRYAAKHGVKAIGVTLSEQQYEWGQAEIKRQGLEDLAEIRFMDYRDVPETGFDAISAIGIIEHIGVNNYPDYFELLSSKLKTGGLMLNHSITYPDNRPRHAGAFIDRYIFPDGELTGSGTLIKHMQDNGFEVLHEENLRFDYQRTLHAWCENLKENWEEAVELAGEPTARLFGLYMAGSEWGFAHNIVQLHQVLGVKLDEQGSRGEVPERMWWTEGHHHHHH | soluble
3 | PVPATPILQLEECCTHNNSATLSWKQPPLSTVPADGYILELDDGNGGQFREVYVGKETMCTVDGLHFNSTYNARVKAFNKTGVSPYSKTLVLQTSEG | soluble
4 | KTTTTIYDKNKEYAGKLSGQKGTYVELNAISDHLKNAVIATEDRTFYENNGVNFKRFFLAVATLGKFGGGSTITQQLAKNAYLSQDQTIKRKAREFFLALELTKKYSKAEILTMYLNNSYFGNGVWGVEDASRKYFGTSAANLTVDEAATLAGMLKGPEVY | not soluble
5 | MSLNPSESRSIAALREIVESARPLSYIRSSEEQRVERLLKDAAQRFFSTKVPVWTWSLTEGLRCDDGAVDASASDPRAALDFIAAYQGPALFHLKDFHEPLRERADIRRRLRDLYGACFDQGKFVVISSPVRYIPEELGRSIMYIELTLPDLAELIGFLREEVHAVKALGGSADTDDATLTQIARALQGLTLDESRHAIRRALAAGGGLGADSLPALYEEKRLLVNRTGMIQYVADGTQIASVGGLEIMKKWLMERRELFQLRDSISAEIVPKGVLIMGVSGCGKSLSVKAIASAFGLPLYRIDMTEIFSGRHGSAEGAFVSACRMLEQIAPAVVWFDEIEMGVNSTESAGEQGRIFAFFLTWMQEKTSGLFVAATANRIDLLPAEMTRKGRFDEIFFVDLPLDDERVEIFRIHLERRGIDTTPFDLTRLIKITKGWVGAEVEQCVVSALTTAHLDNREVTVEDLLRAAGKIVPLSKTMKEQVDHIRSWAYNRAVRASEGHHHHHH | soluble
6 | MKKKLTGVALVLAAVSLMGIQPAGACTRAVYLGPDRMVVTGRTMDWKEDIMSNIYVFPRGMQRAGHNKEKTVNWTSKYGSVIATGYDIGTCDGMNEKGLVASLLFLPESVYSLPGDTRPAMGISIWTQYVLDNFATVREAVDEMKKETFRIDAPRMPNGGPESTLHMAITDETGNTAVIEYLDGKLSIHEGKEYQVMTNSPRYELQLAVNDYWKEVGGLQMLPGTNRSSDRFVRASFYIHAIPQTADAKIAVPSVLSVMRNVSVPFGINTPEKPHISSTRWRSVSDQKNKVYYFESTLTPNLFWLDLKKIDFSPKAGVKKLSLTKGEIYAGDAVKDLKDSQSFTFLFETPVM | soluble
7 | LSDDRYFIFFNQPKTPEESIQLLGAQAGDTESFRVTLDRIPPQIQKLSFTATLDGAGQMSQVAPGYLRIVAGGEEVARYSFTGSEFSTERAVMLGDFYLKDVWRFAAVGQGFDGGLDALLKNFGGEVAEEEPAVPAQTQSGAAPSFAPPAFGAPAAPAPAPAPAPQPAQGFTPPPGPTPPPAPAPAPSVHAAPTIVGPLHTPPGGTVPPPGPAPYAQ | not soluble
8 | MLKHIISAYNFSRDELEDIFALTDKYSKNLNDTRKILSGKTISIAFFEPSTRTYLSFQKAIINLGGDVIGFSGEESTSVAKGENLADTIRMLNNYSDGIVMRHKYDGASRFASEISDIPVINAGDGKHEHPTQAVIDIYTINKHFNTIDGLVFALLGDLKYARTVNSLLRILTRFRPKLVYLISPQLLRARKEILDELNYPVKEVENPFEVINEVDVLYVTRIQKERFVDEMEYEKIKGSYIVSLDLANKMKKDSIILHPLPRVNEIDRKVDKTTKAKYFEQASYGVPVRMSILTKIYGE | soluble
9 | MGSDKIHHHHHHMTKKTGFFKRLKALELPQKQLFAIALCQRMLPNYQLFSEVCEFGDPAVLNTVLELLWQSQYDNKLKFNIDVHLQRLEDNTPDPVDFEAYGVYPAMDAVVALSTLLSAIQDKNEEDIINISKLSSSTVANYIEAISDVDLVDDALDDFVFAHEVMEEEKELQNSLLEIIEENPKITAELVKGLRKDIIEAGVSNIGISIA | not soluble
10 | MSVKSDSRHLYLRVIDHIKEKIKDGAYKERQKLPSEFDLAKELGVSRATLREALRILEEENVVIRRHGVGTFVNAKPLFSSGIEQLSSITDMISSVGKTPGTIFLSSSTTSLTEEEKEKFNSEDGFNAVMIERVRTADGEPVVYCIDKLAKEILPDLSGYNEESLLTVIHNNTHKRITYAVAHIEPIGYHPKISPILECEPETALLVLKQMHYDQNDEPILYSINYFRADKFSFHVLRKRM | not soluble
11 | MKTNPAVDSARLGLLLNELRLPAIKVMWPQFAERADKEGWPAARFLAAIIEHELAERDRRRIERHLAEARLLPGKTLDTFEFEAVPMISKAQVMAITAGDSWLEKGANLLLFGPPGGGKSHLASAIGLALIETGWRVMFTRTTDLVQKLQVARRELGLEAAINRLDRFHLLILDDLAYVTKDQAETSVLFELISARYERRSLLITANQPFGEWGKVFPDPSNARYPCCAAALEHHHHHH | not soluble
12 | MKMELLLIIITQDAYIGQRFTKRSSYLCGIYDKTANTMKEPFQIPTSKDIENLIGTDLYDVWNSLCQRIEKSYEMELLWNRGGKAWTYEYKYRKGGKTLCALYAKEKTLGFMVILGKDERAKFEIQRGQFSNEVQMIYDAATTFHDGKWIMFELKDTKLFNDMERLLLIKRKPNRKAE | soluble
13 | PRRGPVAKRDVLPDPIYNSKLVTRLINKIMIDGKKSKAQKILYTAFDIIRERTGKDPMEVFEQALKNVMPVLEVRARRVGGANYQVPVEVRPDRRVSLGLRWLVQYARLRNEKTMEERLANEIMDAANNTGAAVKKREDTHKMAEANKAFAHYRW | soluble
14 | QRSYERDFPHHDRICIVKTHGTRQSQEGDKPEELDFSQVSGGVAPAIQEEIPGVELATRTTLYGTSKMILEDNKTYETKTLLAEPAFLDMFGVELIAGVRDSALRDNMTCLISESLARKMGGDVLGKRLRPAESKSDRAITIGGVFEDLPHNSSIQADMLLPITWMPAESLNNWIGNDRYIAYVRLRPGVSPESLDEALLEMQKRHQDMEVFRKAGVELHYSLTPFNRLRLEDPTLVNMLRIQQ | soluble
15 | MGSDKIHHHHHHMEDKQKVIFIEDDPNLGLIIVLALQSKGYEVCYANTLSGIQDMIEKDCPNILLLDLEVGNQNALDYLPFIRSKHPSLPVLIASSHNEGEEITRCYEAGANHYTKKPYDIQEIDFLIQRFCKKGSPISNSISIGDYQLELSTHKLFYKQEQSKTLSPKDFKLFYLLSEQLNQPVSREKLFHEIWDGQEVHDSLNNSISRLRKLLEKDTTLSIDAVKGVGYILSKKDQLSSS | not soluble
16 | MGSDKIHHHHHHMVAMRIAIIGANGQLGTDLVEVFGNDPEFEVVPLTHKDLDVTIPESLKVLKEIKPDVLINTAAYVRVDDAELYPEKAFAVNAIGALNVARIANEIDAVNVYISTDYVFDGEKGEPYTEEDVPNPINVYGVSKYTGEIFTRNYSPKHYIIRVASLYGKAGASGKGGNFVEWVIEKAKHGEELKIVDDQFMSPTYTKDVARTLKEFLKLRSEFGVYHMVNEGFCSWYEFTEAIFDVLGWNVEIKPIKSNELNRLAKRPRFSALKNEKLEKIGLRMRHWREALEEYLKEKGYV | not soluble
17 | MAHHHHHHMEAGTSPIRAGSSDGGGSVRGDIFRRHSVNSGENNMNDNKDNDSNTEWSEQFRLIARRMSRALLRNPHPDVQTDKRVMYGVLYELFEQWSERQQRAHSVSLTVEQVGSILRYGEQTLRQASLTAPALNKAQVVVDLIAASPLITIGALTQELRGLQPPVVLTPMAEVLELARLLDVSQGVRTPVGAVNLVHFIALSSTLCPAPDMGALLLLVASNVKRCHLLCAAIYYEWAMIDAQNREGLLLLSRELEEKHQQMCEGFTVDILTPLLTGSFEPFGARPTDPVAVDYLGMGSLPCTGTAEEQQRCHQLAPPSGNELEPTCEDSDTGGHGEGDCESSVEDEYDSDCRDTVDTEFWLRLSS | not soluble
18 | MGSDKIHHHHHHMGDIQYTVRDDLKLFVNSIMVQQSADGNARFRLPLYADGYPGIMFQQSESGFFRFPESKQLSEFFLYGQTLEPISLEVQGTYRFVVFQLYPFASKYLLGIDPKELNDACYDLMQFQYIDMEVYSKQLTAAPDPESLIACMSDGVAALIGLNKPPHNDRIQQAIKQIIETEGRMRISDLSEAVCLSERTLERNFLGEVGLSPKQFAKIIQFQSSLTKLTDANAETLTAIGLDSGFTDQSHFIRVFKQYTGQTPSQYIKNQTR | not soluble
19 | MAHHHHHHMFLTFVRHTPPKTPRNVFFPWQNFSIHKSGSFLEKNRLALRVPINLTKFEIREYLRKIYNAKVIKVNTLIKVPERRRNLTDFRFNYYRNGPRYKKAIITLEHEVPDSVKMIQSCKNIGRNPYITKKNVIYGVRSDVKITPTRSQLWQMGECRYSWRLPLTNLLADYKMNLNPDLRIDENLVQLAPDMTKPFMHSGISSQTFKPSSVPEQTFPKVIFFFFQKGDVLA | soluble
20 | MGSDKIHHHHHHMFAQVHYPESLSGEELDEYLFKGWFRNGQRIFTTNFLNFDQKIYSAVWLRIHLQSIKSIHALDKLAKRNSRFKITIQPASITPEKEALFEQYKTGVDFTASQSLHTLLFGDSTVDIYNTLELLIHDGNKLIGVGYFDTGKDCAAGITSFYDHAYKKNSLGKYIIMQKIKYCIDQQYSYFYPGYFVPNYPAFDYKLSIGTETLEYLSLSKNTWVSIQAFVTNEDPFQVMLKKLKEFQSVCANYGIEQQIYQYSFFEANIIPSLRGLHLFDFPVFVYLFSEQEDVVNPMVVFDVVNQCYHLIECRSIWKADESIQEEGFYSSHLLKMEKHICSALTATEMSTIIMRSIEESSTFR | not soluble
21 | MTITQKGDHHSILAKLRHRNIILAKLEKAYKIPSSNIKNIWTQLNEKIEHTIADFIRLLAKQMFINRYLKSCIRISKAEKKRDTVSLVHHLFYNNAA | not soluble
22 | MSLLFYRPLASIQALTFDLDDTLYDNRPVIKQVEEKVTEWLLSEHPITATRPLAWWLAMKRDIARRFPEQCHDVSQWRYLQVQHGLLELGYAQPEAEQAASETLEQVMRWRNQVDVPAETHRVLAQLAAKVPLIAITNGNVQIEKIGLSGYFQTVLRAGPDGRAKPYPDLFAQAAQQLQLEPRSILHVGDHLQTDVLGARQNGFQACWFNDQGQSIRRLAKASVLPDVEIERLSELLLIVNEGHHHHHH | soluble
